Data from PMC10397247.

Tests used:
Assay in all cases: two-hybrid library CCNG1;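 note: natural log of median RNA to DNA barcode read ratio; higher means stronger binding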
[1] = target: T1, 4H2143-bA
T1 chain: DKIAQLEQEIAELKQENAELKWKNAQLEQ

[2] = target: T2, 4H2717-bA
T2 chain: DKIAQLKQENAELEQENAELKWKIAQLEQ

[3] = target: T3, 4H40-bA
T3 chain: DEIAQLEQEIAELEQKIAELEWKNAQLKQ

[4] = target: T4, 4H182-bA
T4 chain: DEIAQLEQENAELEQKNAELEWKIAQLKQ

[5] = target: T5, 4H741-bA
T5 chain: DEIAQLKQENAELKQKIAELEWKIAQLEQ

[6] = target: T6, 4H2915-bA
T6 chain: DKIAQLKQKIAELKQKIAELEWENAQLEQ

[7] = target: T7, 4H348-bA
T7 chain: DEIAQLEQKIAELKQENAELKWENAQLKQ

[8] = target: T8, 4H2438-bA
T8 chain: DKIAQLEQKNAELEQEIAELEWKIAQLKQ

[9] = target: T9, 4H2588-bA
T9 chain: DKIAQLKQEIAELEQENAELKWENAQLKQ

[10] = target: T10, 4H2839-bA
T10 chain: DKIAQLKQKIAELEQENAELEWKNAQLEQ

[11] = target: T11, 4H477-bA
T11 chain: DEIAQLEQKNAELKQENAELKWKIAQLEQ

[12] = target: T12, 4H2473-bA
T12 chain: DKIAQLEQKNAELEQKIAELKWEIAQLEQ

[13] = target: T13, 4H2223-bA
T13 chain: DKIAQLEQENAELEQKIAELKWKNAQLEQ

[14] = target: T14, 4H2503-bA
T14 chain: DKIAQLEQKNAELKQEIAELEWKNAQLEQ

[15] = target: T15, 4H3277-bA
T15 chain: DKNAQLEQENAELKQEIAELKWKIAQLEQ

[16] = target: T16, 4H3057-bA
T16 chain: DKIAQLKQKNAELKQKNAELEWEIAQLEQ

[17] = target: T17, 4H492-bA
T17 chain: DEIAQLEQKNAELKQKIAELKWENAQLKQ

[18] = target: T18, 4H2692-bA
T18 chain: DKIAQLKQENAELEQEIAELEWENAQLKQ

[19] = target: T19, 4H2134-bA
T19 chain: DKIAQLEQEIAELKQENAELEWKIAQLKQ

[20] = target: T20, 4H319-bA
T20 chain: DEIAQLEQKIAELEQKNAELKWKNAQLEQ

[21] = target: T21, O1-bP
T21 chain: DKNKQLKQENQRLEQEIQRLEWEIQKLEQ

[22] = target: T22, 4H949-bH
T22 chain: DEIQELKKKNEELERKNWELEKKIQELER

[23] = target: T23, 4H932-bH
T23 chain: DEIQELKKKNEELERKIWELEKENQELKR

DEIAQLEQENAELEQKNAELEWKIAQLKQ [4H182-bA]
interaction score [1]: -0.647
interaction score [2]: 0.261
interaction score [3]: -1.06
interaction score [4]: -0.0793
interaction score [5]: -0.573
interaction score [6]: 0.668
interaction score [7]: -1.35
interaction score [8]: -0.622
interaction score [9]: 0.365
interaction score [10]: 0.49
interaction score [11]: -0.804
interaction score [12]: -0.132
interaction score [13]: -0.693
interaction score [14]: -0.357
interaction score [15]: -0.0929
interaction score [16]: 2.13
interaction score [17]: -0.651
interaction score [18]: 0.136
interaction score [19]: -0.497
interaction score [20]: -0.41

DEIQELKKKNEELERKIWELEKENQELKR [4H932-bH]
interaction score [21]: -1.96
interaction score [22]: -0.517
interaction score [23]: -0.509
